Source: patent publication US20250263476A1 (ARGENX, published 2025)

Tests used:
[1] = biological target: T1, human complement component 2 (C2) (human, UniProt P06681 21-752, limits assumed); test: method not described; binding stated to be pH- and Ca2+-dependent; lower end of the printed range for human C2; pH/Ca2+ condition not stated
T1 construct: also called human C2
T1 sequence (looked up): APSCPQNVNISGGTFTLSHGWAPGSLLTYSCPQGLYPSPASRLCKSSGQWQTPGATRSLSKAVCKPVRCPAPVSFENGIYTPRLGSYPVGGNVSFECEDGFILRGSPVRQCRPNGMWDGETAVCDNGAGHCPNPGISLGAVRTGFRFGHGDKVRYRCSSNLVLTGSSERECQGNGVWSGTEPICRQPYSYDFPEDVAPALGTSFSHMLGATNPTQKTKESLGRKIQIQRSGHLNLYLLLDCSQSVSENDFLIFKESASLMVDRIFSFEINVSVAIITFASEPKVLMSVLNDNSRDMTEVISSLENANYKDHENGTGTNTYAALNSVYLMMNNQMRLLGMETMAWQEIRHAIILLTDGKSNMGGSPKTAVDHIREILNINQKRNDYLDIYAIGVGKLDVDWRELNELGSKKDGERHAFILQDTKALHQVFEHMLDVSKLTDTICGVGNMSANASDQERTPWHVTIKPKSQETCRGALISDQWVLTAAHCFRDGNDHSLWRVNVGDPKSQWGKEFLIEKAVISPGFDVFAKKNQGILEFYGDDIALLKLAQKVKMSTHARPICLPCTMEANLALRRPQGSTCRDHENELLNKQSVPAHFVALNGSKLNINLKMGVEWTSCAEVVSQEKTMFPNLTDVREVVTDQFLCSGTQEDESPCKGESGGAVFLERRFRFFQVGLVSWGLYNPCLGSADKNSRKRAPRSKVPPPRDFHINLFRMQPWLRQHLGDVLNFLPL

cynomolgus monkey C2 = biological target: T2, cynomolgus monkey C2 (cynomolgus monkey, UniProt G8F3W0 21-752); test: method not described; binding stated to be pH- and Ca2+-dependent; lower end of the printed range for cynomolgus C2; pH/Ca2+ condition not stated
T2 sequence: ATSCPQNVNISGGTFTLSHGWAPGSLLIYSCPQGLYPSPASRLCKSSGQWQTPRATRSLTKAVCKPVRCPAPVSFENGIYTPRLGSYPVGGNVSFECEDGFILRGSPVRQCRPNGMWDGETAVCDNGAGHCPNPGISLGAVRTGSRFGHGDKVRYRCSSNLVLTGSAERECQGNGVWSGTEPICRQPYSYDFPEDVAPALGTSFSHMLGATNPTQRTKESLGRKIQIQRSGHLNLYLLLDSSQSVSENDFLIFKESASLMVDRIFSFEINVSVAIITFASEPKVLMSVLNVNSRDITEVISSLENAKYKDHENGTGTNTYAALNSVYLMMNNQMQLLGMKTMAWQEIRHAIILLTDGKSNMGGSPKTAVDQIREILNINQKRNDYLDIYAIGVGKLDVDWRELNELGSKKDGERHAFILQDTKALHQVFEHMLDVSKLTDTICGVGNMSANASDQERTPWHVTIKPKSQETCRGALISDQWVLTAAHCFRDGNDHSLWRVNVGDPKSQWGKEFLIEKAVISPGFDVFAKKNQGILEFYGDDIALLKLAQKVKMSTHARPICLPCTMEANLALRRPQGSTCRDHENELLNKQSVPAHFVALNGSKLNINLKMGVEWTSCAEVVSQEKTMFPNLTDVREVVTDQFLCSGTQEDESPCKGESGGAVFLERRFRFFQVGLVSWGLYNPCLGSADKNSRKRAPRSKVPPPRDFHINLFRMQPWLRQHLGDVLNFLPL

C2 from rat = biological target: T3, C2 from rat (rat, UniProt Q8CIP8 19-758); test: not described
T3 sequence: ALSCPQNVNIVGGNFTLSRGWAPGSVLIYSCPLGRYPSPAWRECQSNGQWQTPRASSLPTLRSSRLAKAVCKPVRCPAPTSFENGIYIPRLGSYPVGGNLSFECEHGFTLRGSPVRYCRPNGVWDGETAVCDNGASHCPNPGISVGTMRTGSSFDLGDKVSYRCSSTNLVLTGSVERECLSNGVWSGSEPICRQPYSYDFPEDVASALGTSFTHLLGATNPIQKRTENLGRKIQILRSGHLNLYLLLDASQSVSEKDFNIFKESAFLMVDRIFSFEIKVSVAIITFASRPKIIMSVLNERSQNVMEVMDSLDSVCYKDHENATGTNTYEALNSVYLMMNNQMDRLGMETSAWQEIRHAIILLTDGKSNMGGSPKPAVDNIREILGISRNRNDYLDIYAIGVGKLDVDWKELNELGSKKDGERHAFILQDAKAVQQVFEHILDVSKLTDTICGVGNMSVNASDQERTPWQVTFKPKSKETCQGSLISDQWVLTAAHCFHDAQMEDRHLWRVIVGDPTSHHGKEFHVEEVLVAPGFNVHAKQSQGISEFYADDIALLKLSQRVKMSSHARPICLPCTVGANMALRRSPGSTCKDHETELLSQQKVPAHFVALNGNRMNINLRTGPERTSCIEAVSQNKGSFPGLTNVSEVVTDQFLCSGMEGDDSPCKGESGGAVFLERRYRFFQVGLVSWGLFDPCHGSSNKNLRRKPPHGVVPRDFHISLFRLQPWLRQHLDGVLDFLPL

C2 from rabbit = biological target: T4, C2 from rabbit (rabbit, UniProt G1SS66 21-744); test: not described
T4 sequence: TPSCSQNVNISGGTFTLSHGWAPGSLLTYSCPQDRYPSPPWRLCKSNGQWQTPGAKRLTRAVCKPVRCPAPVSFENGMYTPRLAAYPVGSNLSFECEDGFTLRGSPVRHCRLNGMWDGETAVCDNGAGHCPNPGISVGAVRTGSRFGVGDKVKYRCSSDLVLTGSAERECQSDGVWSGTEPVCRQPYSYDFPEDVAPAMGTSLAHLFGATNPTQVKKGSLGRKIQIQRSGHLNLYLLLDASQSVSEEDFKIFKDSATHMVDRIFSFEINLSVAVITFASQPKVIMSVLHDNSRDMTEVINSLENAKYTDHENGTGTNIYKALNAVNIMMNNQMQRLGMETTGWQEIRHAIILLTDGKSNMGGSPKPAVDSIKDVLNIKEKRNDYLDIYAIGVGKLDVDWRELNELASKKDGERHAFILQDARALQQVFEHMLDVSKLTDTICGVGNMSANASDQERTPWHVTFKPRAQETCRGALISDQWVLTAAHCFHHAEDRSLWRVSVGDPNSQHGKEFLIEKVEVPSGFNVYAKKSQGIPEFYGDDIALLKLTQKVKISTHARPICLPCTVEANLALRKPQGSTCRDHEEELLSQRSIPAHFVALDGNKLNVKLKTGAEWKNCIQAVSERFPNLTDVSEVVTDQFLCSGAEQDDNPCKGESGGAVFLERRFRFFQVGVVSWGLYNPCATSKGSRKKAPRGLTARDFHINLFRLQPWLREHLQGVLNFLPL

C2 from mouse = biological target: T5, C2 from mouse (mouse, UniProt P21180 19-760, limits assumed); test: not described
T5 sequence (looked up): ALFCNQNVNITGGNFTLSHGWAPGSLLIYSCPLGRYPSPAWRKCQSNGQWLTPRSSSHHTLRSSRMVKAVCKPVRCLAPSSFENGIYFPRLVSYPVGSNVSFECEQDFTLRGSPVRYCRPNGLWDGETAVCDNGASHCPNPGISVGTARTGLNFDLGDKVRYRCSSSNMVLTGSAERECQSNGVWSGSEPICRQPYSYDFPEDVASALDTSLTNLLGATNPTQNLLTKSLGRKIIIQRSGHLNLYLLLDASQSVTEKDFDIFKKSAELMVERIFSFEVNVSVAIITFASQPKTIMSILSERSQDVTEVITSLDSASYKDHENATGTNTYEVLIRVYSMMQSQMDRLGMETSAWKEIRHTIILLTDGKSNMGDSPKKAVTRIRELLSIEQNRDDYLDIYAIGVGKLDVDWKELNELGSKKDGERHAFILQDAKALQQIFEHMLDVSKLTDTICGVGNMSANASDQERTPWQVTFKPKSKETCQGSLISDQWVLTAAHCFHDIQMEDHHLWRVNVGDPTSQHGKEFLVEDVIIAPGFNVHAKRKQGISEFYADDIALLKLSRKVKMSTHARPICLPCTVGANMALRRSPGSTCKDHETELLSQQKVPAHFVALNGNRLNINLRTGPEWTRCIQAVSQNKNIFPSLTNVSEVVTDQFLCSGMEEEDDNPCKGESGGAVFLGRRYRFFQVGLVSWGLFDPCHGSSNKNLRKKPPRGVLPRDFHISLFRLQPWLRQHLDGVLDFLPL

B1: ARGX-117 (antibody, human IgG1, kappa, L234A L235A, V domains shown)
VH: EVQLVQSGAEVKKPGASVKVSCKASGYTFTDYNMDWVRQATGQGLEWIGDINPNYESTGYNQKFKGRATMTVDKSISTAYMELSSLRSEDTAVYYCAREDDHDAFAYWGQGTLVTVSS
VL: DNVLTQSPDSLAVSLGERATISCRASKSVRTSGYNYMHWYQQKPGQPPKLLIYLASNLKSGVPDRFSGSGSGTDFTLTISSLQAEDAATYYCQHSRELPYTFGQGTKLEIKR
notes: also called anti-C2 antibody
Kd [1]: 0.109 to 2.02 nM | Kd (cynomolgus monkey C2): 0.056 to 0.13 nM | binding result (C2 from rat): no binding | binding result (C2 from rabbit): no binding | binding result (C2 from mouse): no binding
